Experimental data from publication PMC7467671.

How the values were obtained:
Assay in all cases: potentiometry
[1] = molecular target: Asp10 (position 10, LAKGED-----); conditions: 298 K; 0.1 M NaClO4; none (4 mM HClO4, titrated with 0.1 M carbonate-free NaOH); metal-free peptide, largely unstructured
[2] = molecular target: Glu9 (position 9, VLAKGED----); conditions: 298 K, 0.1 M NaClO4
[3] = molecular target: His2 (position 2, ----THMVLAK); conditions: 298 K, 0.1 M NaClO4
[4] = molecular target: Lys7 (position 7, HMVLAKGED--); conditions: 298 K, 0.1 M NaClO4
[5] = molecular target: Nterm1 (position 1, -----THMVLA); conditions: 298 K, 0.1 M NaClO4
[6] = molecular target: Asp1 (position 1, -----DEHGTA); conditions: 298 K; 0.1 M NaClO4; none (4 mM HClO4, titrated with 0.1 M carbonate-free NaOH); metal-free peptide, largely unstructured
[7] = molecular target: Glu2 (position 2, ----DEHGTAV); conditions: 298 K, 0.1 M NaClO4
[8] = molecular target: His3 (position 3, ---DEHGTAVM); conditions: 298 K, 0.1 M NaClO4
[9] = molecular target: Lys10 (position 10, TAVMLK-----); conditions: 298 K, 0.1 M NaClO4
[10] = molecular target: Nterm1 (position 1, -----DEHGTA); conditions: 298 K, 0.1 M NaClO4
[11] = molecular target: Asp5 (position 5, -…); conditions: 298 K; 0.1 M NaClO4; none (4 mM HClO4, titrated with 0.1 M carbonate-free NaOH); metal-free peptide, largely unstructured
[12] = molecular target: Glu6 (position 6, …-); conditions: 298 K; 0.1 M NaClO4; none (4 mM HClO4, titrated with 0.1 M carbonate-free NaOH); metal-free peptide, largely unstructured
[13] = molecular target: His7 (position 7, …--); conditions: 298 K, 0.1 M NaClO4
[14] = molecular target: Lys9 (position 9, LDEHAKG----); conditions: 298 K, 0.1 M NaClO4
[15] = molecular target: Nterm1 (position 1, -----TMVLDE); conditions: 298 K, 0.1 M NaClO4
[16] = molecular target: Asp8 (position 8, AVMLKDEH---); conditions: 298 K; 0.1 M NaClO4; none (4 mM HClO4, titrated with 0.1 M carbonate-free NaOH); metal-free peptide, largely unstructured
[17] = molecular target: Glu9 (position 9, VMLKDEH----); conditions: 298 K; 0.1 M NaClO4; none (4 mM HClO4, titrated with 0.1 M carbonate-free NaOH); metal-free peptide, largely unstructured
[18] = molecular target: His10 (position 10, MLKDEH-----); conditions: 298 K, 0.1 M NaClO4
[19] = molecular target: Lys7 (position 7, …--); conditions: 298 K, 0.1 M NaClO4
[20] = molecular target: Nterm1 (position 1, -----GTAVML); conditions: 298 K, 0.1 M NaClO4
[21] = molecular target: Asp1 (position 1, -----DEHGGG); conditions: 298 K; 0.1 M NaClO4; none (4 mM HClO4, titrated with 0.1 M carbonate-free NaOH); metal-free peptide, largely unstructured
[22] = molecular target: Asp8 (position 8, HGGGGDEH---); conditions: 298 K; 0.1 M NaClO4; none (4 mM HClO4, titrated with 0.1 M carbonate-free NaOH); metal-free peptide, largely unstructured
[23] = molecular target: Glu2 (position 2, ----DEHGGGG); conditions: 298 K; 0.1 M NaClO4; none (4 mM HClO4, titrated with 0.1 M carbonate-free NaOH); metal-free peptide, largely unstructured
[24] = molecular target: Glu9 (position 9, GGGGDEH----); conditions: 298 K; 0.1 M NaClO4; none (4 mM HClO4, titrated with 0.1 M carbonate-free NaOH); metal-free peptide, largely unstructured
[25] = molecular target: His10 (position 10, GGGDEH-----); conditions: 298 K, 0.1 M NaClO4
[26] = molecular target: His3 (position 3, ---DEHGGGGD); conditions: 298 K, 0.1 M NaClO4
[27] = molecular target: Nterm1 (position 1, -----DEHGGG); conditions: 298 K, 0.1 M NaClO4
[28] = none (4 mM HClO4, titrated with 0.1 M carbonate-free NaOH), metal-free peptide, largely unstructured
[29] = none (4 mM HClO4, titrated with NaOH), Cu(II)-bound, Cu(II):peptide 1:1.1, [Cu(II)]tot = 1 mM
[30] = none (4 mM HClO4, titrated with NaOH), Mn(II)-bound, Mn(II):peptide 1:1.1, [Mn(II)]tot = 0.5 mM

THMVLAKGED [DP2 decapeptide (THMVLAKGED) (synthetic construct (scrambled DP1; Deinococcus radiodurans-inspired))]
pKa [1]: 3.89 | pKa [2, 28]: 4.70 | pKa [2, 29]: 4.91 | pKa [3, 28]: 5.91 | pKa [3, 30]: 5.40 | pKa [4, 28]: 9.86(1) | pKa [4, 29]: 9.87 | pKa [4, 30]: 8.29 | pKa [5, 28]: 7.01 | pKa [5, 30]: 6.59

DEHGTAVMLK
pKa [6]: 3.06 | pKa [7, 28]: 4.20 | pKa [7, 29]: 4.17 | pKa [8, 28]: 6.47 | pKa [8, 30]: 6.11 | pKa [9, 28]: 9.62(3) | pKa [9, 29]: 9.00 | pKa [9, 30]: 8.96 | pKa [10, 28]: 7.85 | pKa [10, 30]: 7.5

TMVLDEHAKG [Mid-DEH decapeptide (TMVLDEHAKG) (synthetic construct (Deinococcus radiodurans-inspired))]
pKa [11]: 3.55 | pKa [12]: 4.06 | pKa [13, 28]: 6.29 | pKa [13, 30]: 6.42 | pKa [14, 28]: 10.52(1) | pKa [14, 29]: 11.20 | pKa [14, 30]: 9.8 | pKa [15, 28]: 7.33 | pKa [15, 29]: 4.59 | pKa [15, 30]: 7.21

GTAVMLKDEH [Term-DEH decapeptide (GTAVMLKDEH) (synthetic construct (Deinococcus radiodurans-inspired))]
pKa [16]: 3.46 | pKa [17]: 4.31 | pKa [18, 28]: 7.02 | pKa [18, 30]: 7.08 | pKa [19, 28]: 10.82(1) | pKa [19, 29]: 11.05 | pKa [20, 28]: 8.16 | pKa [20, 29]: 5.34 | pKa [20, 30]: 7.79

DEHGGGGDEH [Bis-DEH decapeptide (DEHGGGGDEH) (synthetic construct (Deinococcus radiodurans-inspired))]
pKa [21]: 2.67 | pKa [22]: 3.36 | pKa [23]: 4.05 | pKa [24]: 4.69 | pKa [25, 28]: 7.41 | pKa [25, 29]: 7.73 | pKa [25, 30]: 6.37 | pKa [26, 28]: 6.67 | pKa [26, 30]: 7.25 | pKa [27, 28]: 8.41 | pKa [27, 30]: 7.82
